Measured values: US20190382503A1 (published 2019)

Tests used:
[1] = molecular target: T1, human CD137 on cells (human, UniProt Q07011 24-255); assay: flow cytometry, human CD8 T cells gated from CD3-stimulated PBMC, normalized MFI, 2 pooled experiments
T1 construct: Human CD137 on CHO-K1 transfectants, Jurkat/CD137 reporter cells or CD3-stimulated primary human CD8 T cells; cells named under assay; also called 4-1BB; TNFRSF9
Procedure: FACS staining and analysis of CD8 T cells: Following 48 h of incubation with or without CD3, human and cynomolgus PBMC were harvested, pooled, recounted and diluted in FACS buffer (PBS+0.5% BSA, 0.05% NaN₃) to a concentration of 5×10⁶ cells/mL. 50 μL (0.25×10⁶ cells) of cell solution was added to a 96-well FACS staining plate (Falcon #351190). Following 10 min of Fc-blocking in RT using Beriglobin (hIgG, 200 μg/mL), cells were washed in FACS buffer and then incubated for 1 h in 4° C. with 100 μL of the biotinylated ALG.APV-210 or negative control. The antibodies were added in a serial dilution starting either at 5 μg/mL titrating down in a 12 step 1/3 dilution down to 0.0003 μg/mL (exp 1) or 1 μg/mL titrating down in a 12 step 1/2 dilution down to 0.0005 μg/mL (exp 2). […] Cells were analysed for ALG.APV-210 binding using flow cytometry by gating on viable, single cells expressing CD3 and CD8. MFI values (FMO subtracted) from 2 independent experiments as well as normalized pooled data from 2 experiments and EC₅₀-values were determined and plotted using GraphPad Prism 7, non-linear regression log (agonist) vs. normalized response-variable slope, n=6 donors/group.

[2] = molecular target: T2, human 5T4 on cells (human, UniProt Q13641 32-420); assay: flow cytometry, CHO-hu5T4 cells, streptavidin-PE, normalized MFI of 2 pooled experiments
T2 construct: Human 5T4 on transfected cells (CHO-K1, CT26, B16) or endogenous on human tumour lines; the cell line is named under assay; also called trophoblast glycoprotein; TPBG
T2 sequence: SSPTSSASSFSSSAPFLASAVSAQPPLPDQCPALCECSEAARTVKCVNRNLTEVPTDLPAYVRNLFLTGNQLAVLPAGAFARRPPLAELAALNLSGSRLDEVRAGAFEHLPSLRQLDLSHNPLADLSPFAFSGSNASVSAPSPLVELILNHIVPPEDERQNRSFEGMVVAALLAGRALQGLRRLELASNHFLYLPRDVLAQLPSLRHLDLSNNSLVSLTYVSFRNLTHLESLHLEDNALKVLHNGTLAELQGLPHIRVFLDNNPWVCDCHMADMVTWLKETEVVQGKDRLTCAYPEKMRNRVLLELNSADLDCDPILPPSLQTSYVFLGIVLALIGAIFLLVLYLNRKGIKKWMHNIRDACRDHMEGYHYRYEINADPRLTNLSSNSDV
Procedure: (§1) Biotinylation: In order to detect ALG.APV-210 binding to 5T4-expressing cell lines, ALG.APV-210 was first biotinylated. The quality of the biotinylated protein and the impact on binding to its targets was assessed using ELISA.
(§2) FACS staining and analysis of 5T4-expressing cell lines: Prior to the FACS staining, all cell lines were characterized for their 5T4 expression levels using a receptor density kit (Quantum Simply Cellular, anti-human IgG, Bangs Laboratories, Inc). Adherent cell lines were cultured according to their supplier's instructions and were harvested from their cell culture flasks using Trypsin/EDTA, counted in R10 medium in a Burker chamber, and diluted in FACS buffer (PBS+0.5% BSA, 0.05% NaN₃) to a concentration of 4×10⁶ cells/mL. 50 μL (0.20×10⁶) of cell solution was added to a 96-well FACS staining plate (Falcon #351190). Cells were incubated for 20 min in 4° C. with 50 μL of the biotinylated ALG.APV-210 (2× final concentration). […] Cells were analysed for ALG.APV-210 binding using flow cytometry (FACSVerse) by gating on single cells. MFI values (secondary antibody only subtracted) from 1 out of 2 independent experiments, as well as normalized data and EC₅₀-values of pooled data from 2 experiments were determined and plotted using GraphPad Prism 7, non-linear regression log (agonist) vs. normalized response-variable slope.

[3] = molecular target: T2, human 5T4 on cells; assay: flow cytometry, CT26-hu5T4^low cells, streptavidin-PE, normalized MFI of 2 pooled experiments
Procedure: as §2, with “concentration). The antibodies were added in a serial dilution starting at 20 μg/mL titrating down in a 12 step 1/2 dilution down to 0.010 μg/mL.” for “concentration).”

[4] = molecular target: T2, human 5T4 on cells; assay: flow cytometry, CT26-hu5T4^high cells, streptavidin-PE, normalized MFI of 2 pooled experiments
Procedure: as §1, §2

[5] = molecular target: T3, cynomolgus CD137 on cells (cynomolgus macaque, UniProt A9YYE7 24-254); assay: flow cytometry, cynomolgus CD8 T cells gated from CD3-stimulated PBMC, normalized MFI, 2 pooled experiments
T3 construct: whole, on cells; also called CHO-K1/cynomolgus CD137; cynomolgus monkey CD137
Procedure: Isolation and stimulation of cynomolgus PBMC: Cynomolgus PBMC were isolated from 20 mL of cynomolgus monkey blood from 3 different donors, obtained from Silabe, France by density gradient centrifugation using Lympholyte-mammal (Cedarlane labs) according to manufacturer's instructions. Non-tissue treated 96 well plates were pre-coated overnight at 4° C. with 3 μg/mL α-monkey CD3, clone FN-18 (Invitrogen #APS0301). The cynomolgus PBMC were then stimulated identically as the human PBMC described above
FACS staining and analysis of CD8 T cells: Following 48 h of incubation with or without CD3, human and cynomolgus PBMC were harvested, pooled, recounted and diluted in FACS buffer (PBS+0.5% BSA, 0.05% NaN₃) to a concentration of 5×10⁶ cells/mL. 50 μL (0.25×10⁶ cells) of cell solution was added to a 96-well FACS staining plate (Falcon #351190). […] Cells were analysed for ALG.APV-210 binding using flow cytometry by gating on viable, single cells expressing CD3 and CD8. MFI values (FMO subtracted) from 2 independent experiments as well as normalized pooled data from 2 experiments and EC₅₀-values were determined and plotted using GraphPad Prism 7, non-linear regression log (agonist) vs. normalized response-variable slope, n=6 donors/group.

[6] = molecular target: T2, human 5T4 on cells; assay: flow cytometry, CT26-hu5T4^int cells, streptavidin-PE, normalized MFI of 2 pooled experiments
Procedure: as §1, §2

T1 sequence (Q07011 24-255 limits assumed): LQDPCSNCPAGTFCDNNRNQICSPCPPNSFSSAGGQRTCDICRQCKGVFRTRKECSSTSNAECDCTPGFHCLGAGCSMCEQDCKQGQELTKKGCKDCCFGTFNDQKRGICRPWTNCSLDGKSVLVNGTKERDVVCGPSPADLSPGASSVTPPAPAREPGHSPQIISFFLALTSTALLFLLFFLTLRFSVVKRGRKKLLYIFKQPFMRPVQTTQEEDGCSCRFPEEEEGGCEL
T3 sequence (A9YYE7 entry or part of it): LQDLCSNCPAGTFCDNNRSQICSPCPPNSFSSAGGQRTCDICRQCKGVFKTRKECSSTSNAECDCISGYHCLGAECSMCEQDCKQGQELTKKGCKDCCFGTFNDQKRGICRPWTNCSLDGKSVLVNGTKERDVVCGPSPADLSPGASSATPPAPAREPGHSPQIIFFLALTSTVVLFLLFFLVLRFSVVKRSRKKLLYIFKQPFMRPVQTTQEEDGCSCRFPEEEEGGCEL

B1: biotinylated ALG.APV-210 (bispecific antibody)
chain: EVQLLESGGGLVQPGGSLRLSCAASGFTFSHGSMYWVRQAPGKGLEWVSSISSGSGSTYYADSVKGRFTISHDNSKNTLYLQMNSLRAEDTAVYYCARSSYYGSYYSIDYWGQGTLVTVSSGGGGSGGGGSGGGGSGGGGSDIQMTQSPSSLSASVGDRVTITCRASQSISSYLNWYQQKPGKAPKLLIYAASSLQSGVPSRFSGSGSGTDFTLTISSLQPEDFATYYCQQYYDNLPTFGQGTKLEIKEPKSSDKTHTCPPCPAPEAAGAPSVFLFPPKPKDTLMISRTPEVTCVVVDVSHEDPEVKFNWYVDGVEVHNAKTKPREEQYNSTYRVVSVLTVLHQDWLNGKEYKCAVSNKALPAPIEKTISKAKGQPREPQVYTLPPSRDELTKNQVSLTCLVKGFYPSDIAVEWESNGQPENNYKTTPPVLDSDGSFFLYSKLTVDKSRWQQGNVFSCSVMHEALHNHYTQKSLSLSPGSGGGGSGGGGSGGGGSPSEVQLLESGGGLVQPGGSLRLSCAASGFTFSSYAMSWVRQAPGKCLEWVSAISGSGGSTYYADSVKGRFTISRDNSKNTLYLQMNSLRAEDTAVYYCARYYGGYYSAWMDYWGQGTLVTVSSGGGGSGGGGSGGGGSGGGGSDIQMTQSPSSLSASVGDRVTITCRASQSISSFLNWYQQKPGKAPKLLIYAASSLQSGVPSRFSGSGSGTDFTLTISSLQPEDSATYYCQQTYGYLHTFGCGTKLEIKR
modifications: biotinylated (sites not given)
- EC50 [1]: 0.235 nM
- EC50 [2]: 23 nM
- EC50 [3]: 11 nM
- EC50 [4]: 20 nM
- EC50 [5]: 0.236 nM
- EC50 [6]: 12 nM
